Measurements reported in patent publication US20260234247A1 (published 2026).
Numbering of substitutions follows the chain as printed.

B1: LK-RB1-49 (antibody, human IgG4 S228P, kappa, V domains shown)
VH: QIQLVQSGPELKKPGETVKISCKASGYTFTTYGMSWVKQAPGKGLKWMGWINTYSGVPTYADDFKGRFAFSLETSGSTAYLQISNLKNEDTATYFCSRLFRSWDSYAMDYWGQGTSVTVSS
VL: DIVMTQSQKFMSATVGDRVSITCKASQNVGTAVAWYQQKPGQSPKLLIYSPSNRYTGVPDRFTGSGSGTHFTLTINNMQSEDLADYFCQQYSTYPLTFGAGTKLELNR
B2: LK-RB1-53 (antibody, human IgG4 S228P, kappa)
heavy: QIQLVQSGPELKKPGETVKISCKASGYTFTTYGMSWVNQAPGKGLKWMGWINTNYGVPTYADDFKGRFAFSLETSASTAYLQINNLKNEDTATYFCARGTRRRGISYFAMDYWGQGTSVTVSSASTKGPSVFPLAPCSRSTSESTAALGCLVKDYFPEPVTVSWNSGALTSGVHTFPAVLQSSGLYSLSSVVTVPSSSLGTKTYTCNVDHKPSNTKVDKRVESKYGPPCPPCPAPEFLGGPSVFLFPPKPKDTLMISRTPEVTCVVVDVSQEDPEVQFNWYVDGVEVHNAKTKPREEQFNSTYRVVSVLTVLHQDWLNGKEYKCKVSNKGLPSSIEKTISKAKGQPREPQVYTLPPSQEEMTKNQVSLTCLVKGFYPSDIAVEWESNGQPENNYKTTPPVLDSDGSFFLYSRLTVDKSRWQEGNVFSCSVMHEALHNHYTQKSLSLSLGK
light: DIVMTQSQKFMSTTVGDRVSITCKASQNVGTAVAWYQQKPGQSPKLLIYSASNRYTGVPDRFTGSDSGTDFTLTINNIQSEDLADYFCQQYSSYPLTFATGTKLELKRTVAAPSVFIFPPSDEQLKSGTASVVCLLNNFYPREAKVQWKVDNALQSGNSQESVTEQDSKDSTYSLSSTLTLSKADYEKHKVYACEVTHQGLSSPVTKSFNRGEC
B3: LK-RB1-52 (antibody, human IgG4 S228P, kappa, V domains shown)
VH: EVKLVESGGGLVQPGGSLKLSCAASGFIFSDYYMYWVRQTPEKRLEWVAYISNGGDITYYPDTVKGRFTISRDIARNTLFLQMGRLKSEDTAMYYCASATTEVGAMDHWGQGTSVTVSS
VL: DIVMTQSQKFMSTTVGDRVSITCKASQNVGTAVAWYQQKPGQSPKLLIYAASNRYTGVPDRFTGSGSGTDFTLTISNMQSEDLADYFCQQYRSYRTFGGGTNLEIKR
B4: LK-RB1-57 (antibody, human IgG4 S228P, kappa, V domains shown)
VH: B3 VH with I28T, Y59F, I74N, N77S, F80Y, M83T, G84S, M93I
VL: B3 VL with Q42K, M78V, R92S, N102S
B5: LK-RB1-6 (antibody, human IgG4 S228P, kappa, V domains shown)
VH: QIQLVQSGPELKKPGETVKISCKASGYTFTTYGMSWVKQAPGKDLKWMGWINTFSGVPACADDFQGRFDFSAEPSDSTAHLQINNLKNEDTATYFCARRSYYGSRGWYFDVWGTGTTVTVSS
VL: DIVMTQSHKFMSTSVGDRVSITCTASEDVNTAVAWYQQKPGQSPKLLIYWASTRHTGVPDRFTGSGSGTDYTLTISSVQTEDLALYYCQQHYNTPYTFGGGTKLEIKR
B6: LK-RB1-7 (antibody, human IgG4 S228P, kappa, V domains shown)
VH: B5 VH
VL: DVQMIQSPSSLSASLGDIVTMTCQASQDTTINLNWFQQKPGKVPKLLIYGASNLEDGVPSRFSGSSFGTDFTLTISSLEDEDMATYFCLQHTYLPRTFGGGTKLEIRR
B7: LK-RB1-8 (antibody, human IgG4 S228P, kappa, V domains shown)
VH: QVQLQQSGAELVRPGTSVKVSCKASGYAFSNYLIEWVKQRPGQGLEWIGVINPGSDGSTYNEKFKGKATLTADKSSNTAYMQLSSLTSEDSAVYFCARGDYGRSYGMDYWGQGTSVTVSS
VL: DIVMTQSQKFMSTTVGDRVSITCKASQNVGTAVVWYQQKPGQSPKLLIYSASNRYTGVPDRFTGSGSGTDFTLTISNMQSEDLADYFCQQYSSYMYTFGGGTKLEIKR
B8: LK-RB1-2 (antibody, human IgG4 S228P, kappa, V domains shown)
VH: QIQLVQSGPELKKPGETVKISCKASGYTFTTYGVSWVKQAPGKGLKWMGWINTYSGVSTYSDDFKGRFAFSLETSASTAYLQIINLKNEDAATYFCSRRRRTYDGYLSFDYWGQGTTLTVSS
VL: DIQMTQSPGSLSASVGETVTITCGASENIYGALNWFQRKPGKSPQLLIYGATNLADGMSSRFSGSGSGRQYSLQISSLRPDDVATYYCQNVLTTPWTFGGGTKVEIKR
B9: LK-RB1-20 (antibody, human IgG4 S228P, kappa)
heavy: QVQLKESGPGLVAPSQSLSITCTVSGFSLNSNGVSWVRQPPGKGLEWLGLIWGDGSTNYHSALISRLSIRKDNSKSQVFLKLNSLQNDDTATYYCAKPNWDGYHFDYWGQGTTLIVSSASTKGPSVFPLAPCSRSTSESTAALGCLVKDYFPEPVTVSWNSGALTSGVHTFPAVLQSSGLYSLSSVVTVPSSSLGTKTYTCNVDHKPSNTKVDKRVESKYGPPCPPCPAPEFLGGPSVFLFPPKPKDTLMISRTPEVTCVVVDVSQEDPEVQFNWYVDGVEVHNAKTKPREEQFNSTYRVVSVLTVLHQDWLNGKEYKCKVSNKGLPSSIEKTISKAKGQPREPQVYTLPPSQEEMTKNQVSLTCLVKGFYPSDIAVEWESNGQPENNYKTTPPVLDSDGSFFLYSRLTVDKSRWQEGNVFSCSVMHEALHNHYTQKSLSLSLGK
light: DIQMNQSPSSLSASLGDTITITCHASQNIDFWLSWYQQKPGNIPKLLIYKASNLHTGVPSRFSGSGSGTGFTLTISSLQPEDIATYYCQQGQSYPLTFGAGTKLELKRTVAAPSVFIFPPSDEQLKSGTASVVCLLNNFYPREAKVQWKVDNALQSGNSQESVTEQDSKDSTYSLSSTLTLSKADYEKHKVYACEVTHQGLSSPVTKSFNRGEC
B10: LK-RB1-18 (antibody, human IgG4 S228P, kappa, V domains shown)
VH: QVQLKESGPGLVAPSQSLSITCTVSGFSLTNSGVTWIRQPPGKGLEWLGVIWGDGSTNYHSALISRLSISKDNSKSQVFLKLNSLQTDDTATYYCAKPHWDYYNMDYWGQGTSVTVSS
VL: DIQMTQTPSSLSASLGDRVTISCRASQDISNYLNWYQQKPDGTVKLLIYFTSRLHSGVPSRFSGSGSGTDYSLTISNLEQEDFATYFCQQGITLPLTFGAGTKLELKR
B11: LK-RB1-19 (antibody, human IgG4 S228P, kappa, V domains shown)
VH: QVQLKESGPGLVAPSQNLSITCTVSGFSLTSYGVSWVRQPPGKGLEWLGIIWGDGNTDYHSALISRLSIRKDNSKSQVFLKLNSLKSDDTATYYCAKPHWEYYTMDYWGQGTSVTVSS
VL: B10 VL with P8T, Y32F, F50S, S76A, F83V, I92N
B12: LK-RB1-17 (antibody, human IgG4 S228P, kappa, V domains shown)
VH: QVQLQQPGAELVKPGASVKLSCEASGYTFTNYWIHWVKQRPGRGLEWIGRIAPNSGGTKYNEKFKTRATLTVDKASTTAYMQLSSLTSEDSAVYYCARLDGSPYYFDYWGQGTTLTVSS
VL: DIVMTQSQKFMSTSIGDRVSVTCKASQNVDTNVAWYQQKPGQSPKALIYSASYRYSGIPDRFTGSGSGTDFTLTISNVQSEDLAEYFCQQYNSYPYTFGGGTKLEIKR
B13: LK-RB1-3 (antibody, human IgG4 S228P, kappa, V domains shown)
VH: QVQLQQPGAELVKPGTSVNLSCKASGYTFTSYWIHWVKQRPGRGLEWIGRINPYSSGTRYNEKFKNKATLTVDKPSSTAYMQLTSLTSEDSAVYYCARFDGAPDYFDFWGQGTTLTVSS
VL: DIVMTQSQKFMPTSVGDRVNVTCKASQNVGINVAWYQQKLGQSPKALIYSASYRYSGVPDRFTGSGSGTDFTLTINSVQSEDLADYFCQQYNNYPFTFGSGTKLEIKR
B14: LK-RB1-4 (antibody, human IgG4 S228P, kappa, V domains shown)
VH: QVQLQQPGAELVKPGASVKLPCKTSGYTFTSYWMHWVKQRPGRGLEWIGRIDPHYSGTKYNEKFKNKATMTVDTPSSTAYMQLSSLTSEDSAVYYCARFDGDPYYFDYWGPGTTLTVSS
VL: DIVMTQSQKFMSTSVGDRVSVTCKASQNVGTNVAWYKQKAGQSPKAVIYSASYRYSGVPDRFTGSGSGTDFTLSISNVQSEDLAEYFCQQYNNNPFTFGSGTKLEIKR
B15: LK-RB1-14 (antibody, human IgG4 S228P, kappa, V domains shown)
VH: QVTLKESGPGILKPSQTLSLTCSFSGFSLSTSGMGVGWIRQPSGKGLEWLAHIWWDDDKYYNPSLKSQLTISKDTSRNQVFLKITSVDTADTATYYCARTELGRGDSWGQGTSVTVSS
VL: DILLTQSPAILSVSPGERVSFSCRASQSIGTSIHWYQQRTNGSPRLLIKYASESISGIPSRFSGSGSGTDFTLSINSVESEDIADYYCQQSYSWPYTFGGGTKLEIKR
B16: LK-RB1-15 (antibody, human IgG4 S228P, kappa, V domains shown)
VH: B15 VH with L12V, T31I, M34T, V36I, L69V, R77T, N78K, K83N, A98T, S107F
VL: B15 VL with E17D, S32N, Q38R, A51G, S67T, S74T
B17: LK-RB1-21 (antibody, human IgG4 S228P, kappa, V domains shown)
VH: QVQLQQPGAELVKPGASVKMSCKASGYIFTDYWTTWVKQRPGQGLEWIGDIYPVSGSTNYNEKFKNKATLTVDTSSSTAYMQLSSLTSEDSAVYYCARALGRRYYFDYWGQGTTLTVSS
VL: DIVMTQSHKFMSTSIGDRVSITCKASQDVSTAVAWCQQKPGQSPKSLIYSASYRYTGIPDRFTGSGSGTDFTFTISSVQAEDLAVYYCQQHYTNPVTFGTGTKLELKR

The binders below were run against T1, human LILRB1 on CHOK1 cells (human, UniProt Q8NHL6 24-650) (assay: cell-based RBA (FACS): blocking of HLA-G binding to CHOK1-hLILRB1 cells).
T1 construct: whole, on cells; also called CHOK1-hLILRB1; CHOK1-LILRB1
T1 sequence (Q8NHL6 24-650): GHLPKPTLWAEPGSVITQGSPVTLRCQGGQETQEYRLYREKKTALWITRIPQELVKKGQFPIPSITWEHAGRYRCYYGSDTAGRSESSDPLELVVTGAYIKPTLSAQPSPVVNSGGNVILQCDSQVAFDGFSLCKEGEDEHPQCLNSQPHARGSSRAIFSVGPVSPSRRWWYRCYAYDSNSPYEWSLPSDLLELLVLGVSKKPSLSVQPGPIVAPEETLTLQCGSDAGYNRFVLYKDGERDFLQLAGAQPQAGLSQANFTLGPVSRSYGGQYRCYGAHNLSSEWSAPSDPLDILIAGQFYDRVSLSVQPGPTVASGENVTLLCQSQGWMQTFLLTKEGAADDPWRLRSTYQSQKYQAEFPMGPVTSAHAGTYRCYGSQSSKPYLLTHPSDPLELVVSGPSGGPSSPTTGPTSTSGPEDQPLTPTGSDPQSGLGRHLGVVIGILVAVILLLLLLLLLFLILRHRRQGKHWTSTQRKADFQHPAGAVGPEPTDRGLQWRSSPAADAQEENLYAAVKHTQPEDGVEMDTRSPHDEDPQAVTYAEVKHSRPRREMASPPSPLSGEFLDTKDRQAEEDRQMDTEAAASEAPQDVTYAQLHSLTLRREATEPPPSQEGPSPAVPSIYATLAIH

Row | EC50 | Top Inhibition (%) | Binder
1 | 2.32 nM | 91.4% | B1
2 | 2.01 nM | 75.7% | B2
3 | 2.25 nM | 89.7% | B3
4 | 1.67 nM | 90% | B4

The binders below were run against T2, human LILRB2 on CHOK1 cells (human, UniProt Q8N423 22-597) (assay: FACS binding, CHOK1-hLILRB2 cells).
T2 construct: whole, on cells; also called CHOK1-hLILRB2; CHOK1-LILRB2
T2 sequence (Q8N423 22-597): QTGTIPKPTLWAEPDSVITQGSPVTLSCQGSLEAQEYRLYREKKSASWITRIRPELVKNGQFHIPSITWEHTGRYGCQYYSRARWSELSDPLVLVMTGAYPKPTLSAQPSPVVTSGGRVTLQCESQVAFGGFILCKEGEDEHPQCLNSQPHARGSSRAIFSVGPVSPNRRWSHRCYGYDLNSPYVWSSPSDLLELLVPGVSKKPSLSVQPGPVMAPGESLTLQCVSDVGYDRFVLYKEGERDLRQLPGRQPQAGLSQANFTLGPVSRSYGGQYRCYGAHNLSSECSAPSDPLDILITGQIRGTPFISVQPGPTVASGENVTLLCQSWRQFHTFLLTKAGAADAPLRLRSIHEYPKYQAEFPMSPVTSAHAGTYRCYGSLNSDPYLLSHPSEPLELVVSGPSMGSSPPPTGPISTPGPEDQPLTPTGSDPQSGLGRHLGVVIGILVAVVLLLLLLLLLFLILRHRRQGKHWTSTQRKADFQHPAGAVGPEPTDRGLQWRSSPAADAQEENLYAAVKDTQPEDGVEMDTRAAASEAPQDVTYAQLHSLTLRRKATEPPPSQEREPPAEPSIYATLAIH

Row | binding result | Binder
5 | no binding | B1
6 | no binding | B2
7 | no binding | B3
8 | no binding | B4

These binders were tested against T3, human LILRB1 (human, UniProt Q8NHL6 24-458, limits assumed) (assay: Octet off-rate ranking;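 note: antibody dissociation rate constants against cynomolgus LILRB2 plus human LILRB1, LILRB2, LILRA1 and LILRA2, measured on an Octet instrument to rank binding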).
T3 construct: also called hLILRB1
T3 sequence (Q8NHL6 24-458 limits assumed): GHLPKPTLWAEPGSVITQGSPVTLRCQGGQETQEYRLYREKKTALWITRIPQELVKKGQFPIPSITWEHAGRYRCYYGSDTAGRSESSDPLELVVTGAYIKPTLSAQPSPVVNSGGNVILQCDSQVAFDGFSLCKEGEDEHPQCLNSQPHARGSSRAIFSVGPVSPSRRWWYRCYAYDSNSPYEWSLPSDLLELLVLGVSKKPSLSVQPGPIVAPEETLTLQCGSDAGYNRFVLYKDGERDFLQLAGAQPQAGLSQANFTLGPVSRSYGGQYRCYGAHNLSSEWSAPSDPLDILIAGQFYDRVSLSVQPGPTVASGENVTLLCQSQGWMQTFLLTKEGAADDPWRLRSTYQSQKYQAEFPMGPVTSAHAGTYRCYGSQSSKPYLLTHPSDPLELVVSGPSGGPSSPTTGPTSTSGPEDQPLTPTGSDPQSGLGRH
Excerpt: Binding affinity of anti-LILRB1 and anti-LILRB2 antibodies against human LILRB1, LILRB2, LILRA1, LILRA2 and cynomolgus LILRB2 was ranked by measuring dissociation rate constant (Kdis) using the Octet system.

Row | koff | Binder
9 | 0.00059 s⁻¹ | B5
10 | 0.00059 s⁻¹ | B6
11 | 0.000218 s⁻¹ | B7
12 | 0.000118 s⁻¹ | B8
13 | 0.000141 s⁻¹ | B9
14 | 8.15e-05 s⁻¹ | B10
15 | 4.78e-05 s⁻¹ | B11
16 | 0.000312 s⁻¹ | B12
17 | 5.24e-05 s⁻¹ | B13
18 | 2.79e-05 s⁻¹ | B14
19 | 0.00131 s⁻¹ | B15
20 | 0.000103 s⁻¹ | B16
21 | 4.02e-05 s⁻¹ | B17

These binders were tested against T1, human LILRB1 on CHOK1 cells (assay: FACS binding, CHOK1-hLILRB1 cells).

Row | EC50 | Binder
22 | 2.05 nM | B1
23 | 0.71 nM | B2
24 | 1.8 nM | B3
25 | 1.78 nM | B4
